Experimental data taken from the supplement of paper PMC7125110.
± gives the standard error. This sample holds only a part of the variants without activity.

B1: glmS ribozyme (parent)
chain: AUAAAAGCGCCAGAACUACAGAAAUGUAGUUGACGAGGAGGAGGUUUAUCGAAUUUUCGGCGGAUGCCUCCAAA

Experiments:
Conditions in all cases: with glucosamine-6-phosphate
glucosamine-6-phosphate [1] = variants of: B1; assay: self-cleavage kobs at 640 uM GlcN6P; higher = faster cleavage; RNA array
Summary of the method: (§1)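 Barcoded ribozyme variants on sequenced MiSeq chips were transcribed in situ by E. coli RNA polymerase and followed at 37 °C through a hybridised Cy3 probe. Glucosamine-6-phosphate at 40 μM to 10 mM in HEPES/KCl/Mg(OAc)2 buffer was flowed in, and tiles were imaged over ~14 h. Signals were normalised to baseline and to non-cleaving reference variants, and per-tile medians were fit to one- or two-exponential decays to give kobs. Weighted Michaelis–Menten fits across concentrations gave kcat and KM.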

glucosamine-6-phosphate [2] = variants of: B1; assay: self-cleavage kobs at 2500 uM GlcN6P; higher = faster cleavage; RNA array
Summary of the method: as §1

glucosamine-6-phosphate [3] = variants of: B1; assay: self-cleavage kobs at 10000 uM GlcN6P; higher = faster cleavage; RNA array
Summary of the method: as §1

Variant	self-cleavage kobs at 640 uM GlcN6P (glucosamine-6-phosphate [1])	self-cleavage kobs at 2500 uM GlcN6P (glucosamine-6-phosphate [2])	self-cleavage kobs at 10000 uM GlcN6P (glucosamine-6-phosphate [3])
A33C G38A U47G	< 1e-05 s⁻¹	< 1e-05 s⁻¹	–
G38U C61A	< 1e-05 s⁻¹	–	–
A39U U56A A72U	0.000916 ± 0.00022 s⁻¹	0.00356 ± 0.00049 s⁻¹	–
U31C G60A U69A	< 1e-05 s⁻¹	–	–
A42C A48U C68G	< 1e-05 s⁻¹	–	–
C34G U69G	0.000107 ± 2e-05 s⁻¹	8.27e-05 ± 2.5e-05 s⁻¹	–
C34G G35C G60C C68G	6.81e-05 ± 3.1e-05 s⁻¹	–	–
U46A C50G C58G	< 1e-05 s⁻¹	–	–
G35C G40A G43U	< 1e-05 s⁻¹	< 1e-05 s⁻¹	–
A36G G41C	< 1e-05 s⁻¹	–	< 1e-05 s⁻¹
G9C A39U G40U	< 1e-05 s⁻¹	< 1e-05 s⁻¹	–
G7C C61A G63C	< 1e-05 s⁻¹	–	–
A36C G41A U45G A52U	< 1e-05 s⁻¹	–	–
G32A G44U C67G	0.000431 ± 0.0001 s⁻¹	0.00127 ± 0.00059 s⁻¹	–
G7A A48G A64U C70U	< 1e-05 s⁻¹	–	–
A12G G43C A53G	< 1e-05 s⁻¹	< 1e-05 s⁻¹	–
C10A C67U C68U	0.000489 ± 0.00014 s⁻¹	–	–
G37U A39C A64G U69G	< 1e-05 s⁻¹	–	–
U46G U57C G60U	< 1e-05 s⁻¹	–	–
C11G G44U C50G G62C	< 1e-05 s⁻¹	< 1e-05 s⁻¹	–
C11A U31G G35C	< 1e-05 s⁻¹	< 1e-05 s⁻¹	–
G7C A15U U45A	< 1e-05 s⁻¹	< 1e-05 s⁻¹	–

Variant	self-cleavage kobs at 640 uM GlcN6P (glucosamine-6-phosphate [1])	self-cleavage kobs at 2500 uM GlcN6P (glucosamine-6-phosphate [2])	self-cleavage kobs at 10000 uM GlcN6P (glucosamine-6-phosphate [3])
C16U C58U C67U C70U	0.000267 ± 6.7e-05 s⁻¹	6.37e-05 ± 2.5e-05 s⁻¹	–
U46A A48G C50U	< 1e-05 s⁻¹	< 1e-05 s⁻¹	–
C11U A14C A39G	0.000103 ± 3.3e-05 s⁻¹	0.000472 ± 0.00019 s⁻¹	–
G41A G63U U65G C70U	< 1e-05 s⁻¹	< 1e-05 s⁻¹	–
C10U A39U A52U C58G C71U	< 1e-05 s⁻¹	< 1e-05 s⁻¹	–
A14G A33G G37A C50G C70G	6.3e-05 ± 2.1e-05 s⁻¹	4.9e-05 ± 1.5e-05 s⁻¹	–
A36C U49G G63A	< 1e-05 s⁻¹	< 1e-05 s⁻¹	–
G9C A15C A53U	< 1e-05 s⁻¹	–	–
U55G G63U	< 1e-05 s⁻¹	< 1e-05 s⁻¹	–
A42G A64G C70A	4.59e-05 ± 2.2e-05 s⁻¹	0.000247 ± 6.8e-05 s⁻¹	–
A42G U47G C67U	0.00108 ± 0.00019 s⁻¹	0.0013 ± 0.00029 s⁻¹	–
G9U G29U G44A	< 1e-05 s⁻¹	< 1e-05 s⁻¹	–
U30A G40A C50U	< 1e-05 s⁻¹	< 1e-05 s⁻¹	–
C11A U30C G38U	< 1e-05 s⁻¹	< 1e-05 s⁻¹	–
C10A G38A G40U C50G G51U	< 1e-05 s⁻¹	< 1e-05 s⁻¹	–
A6C C16U G60U	< 1e-05 s⁻¹	< 1e-05 s⁻¹	–
C8A C10A A42G G60U	< 1e-05 s⁻¹	< 1e-05 s⁻¹	–
A42U G51A G63U	< 1e-05 s⁻¹	–	–
C11A G13U U57G C71U	4.71e-05 ± 2.2e-05 s⁻¹	–	–
C10U G29U U55G	< 1e-05 s⁻¹	< 1e-05 s⁻¹	–
U30G U54A C67G	0.000105 ± 2.2e-05 s⁻¹	–	–
U47C G59U	< 1e-05 s⁻¹	–	–

Variant	self-cleavage kobs at 640 uM GlcN6P (glucosamine-6-phosphate [1])	self-cleavage kobs at 2500 uM GlcN6P (glucosamine-6-phosphate [2])	self-cleavage kobs at 10000 uM GlcN6P (glucosamine-6-phosphate [3])
A33U U45C C50A	< 1e-05 s⁻¹	< 1e-05 s⁻¹	–
A6G U57A C68G	7.18e-05 ± 2.3e-05 s⁻¹	–	–
G29C U56C	0.000147 ± 3.2e-05 s⁻¹	0.000116 ± 2.1e-05 s⁻¹	0.00068 ± 0.00019 s⁻¹
U31C A42U G44A	< 1e-05 s⁻¹	< 1e-05 s⁻¹	–
C8G G32A A39G U54A	< 1e-05 s⁻¹	< 1e-05 s⁻¹	–
C8U A33C G40C G62A C70U	< 1e-05 s⁻¹	–	–
C8A U49G C68G	0.000875 ± 0.00033 s⁻¹	–	–
U46G G51U U56G U69G	0.000445 ± 0.00011 s⁻¹	–	–
U30A G37C A53U	< 1e-05 s⁻¹	–	< 1e-05 s⁻¹
G13U U56C A64U	< 1e-05 s⁻¹	< 1e-05 s⁻¹	< 1e-05 s⁻¹
G29U G32U G38A C61A C67U	0.000133 ± 3.8e-05 s⁻¹	0.00034 ± 9.8e-05 s⁻¹	–
A6G A36C C50G	0.000132 ± 3.4e-05 s⁻¹	–	–
A6C G40C G60U	< 1e-05 s⁻¹	–	–
C34U G51A U57G U69G	0.000271 ± 9.8e-05 s⁻¹	–	0.000296 ± 7.8e-05 s⁻¹
G35A U46G A48G C68A C71U	< 1e-05 s⁻¹	< 1e-05 s⁻¹	–
G29C G37A G38U A52G	< 1e-05 s⁻¹	–	–
A6U C16U G41U	< 1e-05 s⁻¹	–	–
C10A A12U C67G	8.71e-05 ± 3.5e-05 s⁻¹	–	–
C16A C68G	0.000279 ± 0.00013 s⁻¹	3.3e-05 ± 9.2e-06 s⁻¹	–
A12G A36C U45C G60U	< 1e-05 s⁻¹	–	–
G13A U57A A64C C68A	0.000763 ± 0.00019 s⁻¹	–	–
